Measured values published in publication PMC6021012.

How the values were obtained:
[1] = target: phosphorylated CheY K91C, methylene blue at position 91 (E. coli) (UniProt P0AE67); test: electrochemical sensor
[2] = target: CheY K91C, methylene blue at position 91 (E. coli) (UniProt P0AE67); test: electrochemical sensor

Kd [1]: 16 µM
Kd [2]: 213 µM
Substance: 16-residue target region of the flagellar switch protein FliM (peptide)
